Target: T1, His-NSF (Arabidopsis, UniProt Q9M0Y8 1-742)
T1 construct: Arabidopsis thaliana N-ethylmaleimide-sensitive factor (NSF), At4g04910; also called NSF-His; his-tagged NSF
T1 sequence (looked up): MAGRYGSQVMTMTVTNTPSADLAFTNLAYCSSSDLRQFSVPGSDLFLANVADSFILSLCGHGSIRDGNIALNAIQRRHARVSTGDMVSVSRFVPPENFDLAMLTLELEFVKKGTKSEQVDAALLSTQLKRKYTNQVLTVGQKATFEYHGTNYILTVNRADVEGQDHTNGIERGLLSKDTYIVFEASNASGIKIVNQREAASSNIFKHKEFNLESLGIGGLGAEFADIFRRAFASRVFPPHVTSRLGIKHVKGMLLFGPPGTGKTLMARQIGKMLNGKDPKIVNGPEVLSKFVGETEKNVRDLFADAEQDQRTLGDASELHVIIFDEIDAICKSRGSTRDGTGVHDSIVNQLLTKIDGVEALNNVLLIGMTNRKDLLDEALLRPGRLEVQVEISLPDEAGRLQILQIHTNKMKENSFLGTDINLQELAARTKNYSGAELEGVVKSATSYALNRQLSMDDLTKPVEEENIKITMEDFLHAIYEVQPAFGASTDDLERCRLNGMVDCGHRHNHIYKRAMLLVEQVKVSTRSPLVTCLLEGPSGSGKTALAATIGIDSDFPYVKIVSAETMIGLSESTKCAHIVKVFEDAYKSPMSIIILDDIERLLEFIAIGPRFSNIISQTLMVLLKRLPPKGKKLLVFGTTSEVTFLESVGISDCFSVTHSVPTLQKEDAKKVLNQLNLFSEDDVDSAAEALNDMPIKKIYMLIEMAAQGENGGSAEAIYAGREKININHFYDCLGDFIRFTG
Test: pull-down; in vitro pull-down; NSF-His used to pull down ASNAP.1-GST or ASNAP.2-GST; recombinant proteins from E. coli, affinity-purified
Conditions: both partners purified

binding result: binds
B1: GST-ASNAP.1 (natural protein, Arabidopsis, UniProt Q9SPE6 1-289, looked up)
chain: MGDHLVRAEEFEKKAEKKLNGWGIFGSKYEDAADLLEKAANSYKLAKSWDQAGKAYLKLADCHLKSDSKHDAANAYAEAAKCYKKVDTNEAASCLERAVNIFCEIGRLNMAARYYKEIAEYYESDQKFEQAIAYFEKAAEFFQNEEVTTSANQCNLKVAQYAAQLEQYEKAIKIYEDIARHSLNNNLLKYGVKGHLLTAGMCHLCKADVVSITNALEKYQDLDPTFTGTRECKFLADLASAIDEEDIAKFTDVVKEFDSMTPLDSWKTTMLLRVKEKLKAKELEEDDLT
notes: Arabidopsis thaliana alpha-soluble NSF attachment protein ASNAP, splicing variant ASNAP.1 (At3g56190.1); The only vector named for the pull-down constructs is pET-32a, which is not a GST vector; also called ASNAP.1-GST; α-SNAP.1

Source: publication PMC8096068, “The canonical α-SNAP is essential for gametophytic development in Arabidopsis” (PLoS Genetics, 2021)
